Data published in the supplement of paper PMC10065799, “High-throughput profiling of sequence recognition by tyrosine kinases and SH2 domains using bacterial peptide display” (eLife, 2023).

molecular target: Grb2 SH2 (UniProt P62993); test: SH2 binding enrichment of the phosphorylated peptide, bacterial display (enrichment ratio); higher = better substrate or ligand; peptides without Tyr show the background
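Wherever SH2 binding enrichment of the phosphorylated peptide, bacterial display is given: peptide library displayed on the E. coli surface as eCPX fusions, selected cells deep-sequenced, score is each peptide's frequency after selection divided by its frequency in the input.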

Grb2 SH2, sequence (P62993 whole entry, looked up, the tested form may be a part): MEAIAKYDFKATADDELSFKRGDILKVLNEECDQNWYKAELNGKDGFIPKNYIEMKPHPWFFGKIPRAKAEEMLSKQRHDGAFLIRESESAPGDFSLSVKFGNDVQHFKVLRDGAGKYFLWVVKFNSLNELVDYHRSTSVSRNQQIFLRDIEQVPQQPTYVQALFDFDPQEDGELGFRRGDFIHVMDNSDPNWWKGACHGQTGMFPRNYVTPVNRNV

Sequence	SH2 binding enrichment
SFSGEYGSGGG [ZG16_Y30_G32S_YF]	0.885
SVTCTYSPAVN [TP53_Y126_L130V]	0.588
TWQSMYGCDVG [HLA-B_Y123_L119W]	0.899
CWAVKYLQMVG [AVPR2_Y117_R113W]	1.26
TKDTFYKQPVF [GBA_Y451_M455V]	0.905
RESYKYFPSSL [CXXC1_Y218]	1.06
EAEALYQTKFQ [KRT73_Y325]	0.707
GLTSTYVGIRK [ROBO1_Y932_A933V]	0.741
YRKNTYNVKST [SYNE2_Y575_I574T]	0.79
KEAQVYQAFRL [SUCLG2_Y343_K347R]	0.768
QEGPEYWDEET [HLA-A_Y83_Q86E]	0.91
HEVHIYENSGA [ARPC1B_Y35_K37N]	12.4
DFPMGYPSYLA [TBCK_Y153_I151M]	0.825
SGEKPYKCSVC [ZNF543_Y283_E287V]	1.02
LRYDSYSSYCN [SLC20A2_Y433]	0.65
RDLHTYIMPAH [PNMT_Y256_R254H]	0.609
CFVFFYSFLLK [PTEN_Y178_R173C_YF]	1.78

Sequence	SH2 binding enrichment
HKNNNYEPSLF [BRCA2_Y57_N60S]	0.931
LINPKYSVEEE [PCDH19_Y27_L25P]	1.92
LLVVLNKFRCF [PSEN1_Y154_Y154N_YF]	1.7
CPPELYALMSD [ZAP70_Y569]	2.08
VNYQPYRKHKY [TEX37_Y28_D24N]	0.777
HAEERYGKELV [PSTPIP1_Y53_Q48H]	0.755
TQNAVYSAANY [DDX5_Y535_G533A]	0.88
GITVTYTIPKK [UBA5_Y372_A371T]	0.862
QRHFVYFFSFL [PTEN_Y176_R173H_YF]	1.48
RAILLYEYVGK [NATD1_Y45_V42I]	1.56
VDLIVYLWTNP [TK2_Y181_R183W]	0.713
KKKKQYKGKFL [CASK_Y708_D710G_YF]	0.685
RLRAAYNLVKR [PFKM_Y103]	0.721
PGGNIYISPLK [RB1_Y805]	1.39
GGFTWYCDGKK [PROS1_Y266_C265W_YF]	0.761
HSVLNYGVCVC [JAK2_Y613_L609S]	0.853

molecular target: SHP2-C SH2; test: as above

Sequence	SH2 binding enrichment
SFSGEYGSGGG [ZG16_Y30_G32S_YF]	0.728
SVTCTYSPAVN [TP53_Y126_L130V]	0.661
TWQSMYGCDVG [HLA-B_Y123_L119W]	0.661
CWAVKYLQMVG [AVPR2_Y117_R113W]	1.2
TKDTFYKQPVF [GBA_Y451_M455V]	0.66
RESYKYFPSSL [CXXC1_Y218]	0.697
EAEALYQTKFQ [KRT73_Y325]	0.609
GLTSTYVGIRK [ROBO1_Y932_A933V]	11.5
YRKNTYNVKST [SYNE2_Y575_I574T]	0.715
KEAQVYQAFRL [SUCLG2_Y343_K347R]	0.541
QEGPEYWDEET [HLA-A_Y83_Q86E]	0.699
HEVHIYENSGA [ARPC1B_Y35_K37N]	1.03
DFPMGYPSYLA [TBCK_Y153_I151M]	0.827
SGEKPYKCSVC [ZNF543_Y283_E287V]	0.712
LRYDSYSSYCN [SLC20A2_Y433]	0.449
RDLHTYIMPAH [PNMT_Y256_R254H]	0.504
CFVFFYSFLLK [PTEN_Y178_R173C_YF]	1.8

Sequence	SH2 binding enrichment
HKNNNYEPSLF [BRCA2_Y57_N60S]	0.72
LINPKYSVEEE [PCDH19_Y27_L25P]	0.548
LLVVLNKFRCF [PSEN1_Y154_Y154N_YF]	1.34
CPPELYALMSD [ZAP70_Y569]	0.784
VNYQPYRKHKY [TEX37_Y28_D24N]	0.771
HAEERYGKELV [PSTPIP1_Y53_Q48H]	0.7
TQNAVYSAANY [DDX5_Y535_G533A]	0.956
GITVTYTIPKK [UBA5_Y372_A371T]	3.64
QRHFVYFFSFL [PTEN_Y176_R173H_YF]	0.842
RAILLYEYVGK [NATD1_Y45_V42I]	1.25
VDLIVYLWTNP [TK2_Y181_R183W]	0.682
KKKKQYKGKFL [CASK_Y708_D710G_YF]	0.916
RLRAAYNLVKR [PFKM_Y103]	0.489
PGGNIYISPLK [RB1_Y805]	1.72
GGFTWYCDGKK [PROS1_Y266_C265W_YF]	0.511
HSVLNYGVCVC [JAK2_Y613_L609S]	0.929

molecular target: c-Src SH2; test: as above

Sequence	SH2 binding enrichment
SFSGEYGSGGG [ZG16_Y30_G32S_YF]	0.409
SVTCTYSPAVN [TP53_Y126_L130V]	0.369
TWQSMYGCDVG [HLA-B_Y123_L119W]	0.684
CWAVKYLQMVG [AVPR2_Y117_R113W]	0.92
TKDTFYKQPVF [GBA_Y451_M455V]	0.417
RESYKYFPSSL [CXXC1_Y218]	0.688
EAEALYQTKFQ [KRT73_Y325]	0.348
GLTSTYVGIRK [ROBO1_Y932_A933V]	0.649
YRKNTYNVKST [SYNE2_Y575_I574T]	0.46
KEAQVYQAFRL [SUCLG2_Y343_K347R]	0.486
QEGPEYWDEET [HLA-A_Y83_Q86E]	0.646
HEVHIYENSGA [ARPC1B_Y35_K37N]	6.64
DFPMGYPSYLA [TBCK_Y153_I151M]	0.572
SGEKPYKCSVC [ZNF543_Y283_E287V]	0.532
LRYDSYSSYCN [SLC20A2_Y433]	1.24
RDLHTYIMPAH [PNMT_Y256_R254H]	1.27
CFVFFYSFLLK [PTEN_Y178_R173C_YF]	0.789

Sequence	SH2 binding enrichment
HKNNNYEPSLF [BRCA2_Y57_N60S]	0.866
LINPKYSVEEE [PCDH19_Y27_L25P]	0.786
LLVVLNKFRCF [PSEN1_Y154_Y154N_YF]	1.35
CPPELYALMSD [ZAP70_Y569]	1.06
VNYQPYRKHKY [TEX37_Y28_D24N]	0.568
HAEERYGKELV [PSTPIP1_Y53_Q48H]	0.362
TQNAVYSAANY [DDX5_Y535_G533A]	0.708
GITVTYTIPKK [UBA5_Y372_A371T]	1.26
QRHFVYFFSFL [PTEN_Y176_R173H_YF]	0.911
RAILLYEYVGK [NATD1_Y45_V42I]	1.55
VDLIVYLWTNP [TK2_Y181_R183W]	0.436
KKKKQYKGKFL [CASK_Y708_D710G_YF]	0.515
RLRAAYNLVKR [PFKM_Y103]	0.39
PGGNIYISPLK [RB1_Y805]	1.04
GGFTWYCDGKK [PROS1_Y266_C265W_YF]	0.37
HSVLNYGVCVC [JAK2_Y613_L609S]	0.584

test system: AncSZ; test: phosphorylation enrichment, bacterial display (enrichment ratio); higher = better substrate or ligand; peptides without Tyr show the background;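 further: 11-residue human phosphosite peptides and single-mutation variants displayed on the E. coli surface, counted by deep sequencing, each peptide's frequency after selection divided by its frequency in the unselected input library; frequency after pTyr selection over input frequency; kinase dosed for 20-30% of maximal phosphorylation in three min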

Sequence	phosphorylation enrichment
SFSGEYGSGGG [ZG16_Y30_G32S_YF]	0.556
SVTCTYSPAVN [TP53_Y126_L130V]	1.58
TWQSMYGCDVG [HLA-B_Y123_L119W]	1.02
CWAVKYLQMVG [AVPR2_Y117_R113W]	1.37
TKDTFYKQPVF [GBA_Y451_M455V]	0.634
RESYKYFPSSL [CXXC1_Y218]	1.18
EAEALYQTKFQ [KRT73_Y325]	1.33
GLTSTYVGIRK [ROBO1_Y932_A933V]	0.756
YRKNTYNVKST [SYNE2_Y575_I574T]	0.415
KEAQVYQAFRL [SUCLG2_Y343_K347R]	0.576
QEGPEYWDEET [HLA-A_Y83_Q86E]	2.5
HEVHIYENSGA [ARPC1B_Y35_K37N]	1.44
DFPMGYPSYLA [TBCK_Y153_I151M]	0.65
SGEKPYKCSVC [ZNF543_Y283_E287V]	0.495
LRYDSYSSYCN [SLC20A2_Y433]	1.32
RDLHTYIMPAH [PNMT_Y256_R254H]	1.61
CFVFFYSFLLK [PTEN_Y178_R173C_YF]	0.997

Sequence	phosphorylation enrichment
HKNNNYEPSLF [BRCA2_Y57_N60S]	1.13
LINPKYSVEEE [PCDH19_Y27_L25P]	1.8
LLVVLNKFRCF [PSEN1_Y154_Y154N_YF]	1.82
CPPELYALMSD [ZAP70_Y569]	1.57
VNYQPYRKHKY [TEX37_Y28_D24N]	0.578
HAEERYGKELV [PSTPIP1_Y53_Q48H]	1.26
TQNAVYSAANY [DDX5_Y535_G533A]	0.643
GITVTYTIPKK [UBA5_Y372_A371T]	0.933
QRHFVYFFSFL [PTEN_Y176_R173H_YF]	1.91
RAILLYEYVGK [NATD1_Y45_V42I]	3.29
VDLIVYLWTNP [TK2_Y181_R183W]	1.15
KKKKQYKGKFL [CASK_Y708_D710G_YF]	0.617
RLRAAYNLVKR [PFKM_Y103]	1.16
PGGNIYISPLK [RB1_Y805]	0.902
GGFTWYCDGKK [PROS1_Y266_C265W_YF]	1.08
HSVLNYGVCVC [JAK2_Y613_L609S]	0.91
